Results on five molecules are retold here after patent publication US20120100604A1, “METHODS AND COMPOSITIONS FOR GENERATING SELF ATTENUATING GENETIC CIRCUITRY” (THE REGENTS OF THE UNIVERSITY OF CALIFORNIA, priority 2008, published 2012).

For one test, the system named is human satellite cells. The test is described as follows: Myogenic regenerative capacity of human satellite cells (proliferating fusion-competent myoblasts, desmin/BrdU). The settings on record: young and old human satellite cells in culture. The test is classed as cell-based. The method, then: Myofiber and satellite cell cultures were isolated from basal state human biopsies, in a manner similar to those previously described for the mouse model (Conboy et al. (2003) Science 302:1575-1577). Whole muscle biopsies were prepared for myofiber fragments by enzymatic digestion −37° C. in DMEM (Invitrogen, Carlsbad, Calif.)/Pen-Strep (Invitrogen)/0.2% Collagenase Type IIA (Sigma), trituration, and multiple sedimentation and washing procedures. Isolated satellite cells and myofibers were resuspended in growth medium (Ham's F10 nutrient mixture—Mediatech, Inc., Herndon, Va.), 10% BGS, 5 ng/ml hbFGF (Invitrogen) and 1% Pen-Strep, and cultured on Matrigel (diluted 1:250). Blood was collected from subjects for sera isolation. Briefly, blood cells were coagulated followed by centrifugation at 8,000 rpm, 4° C. in a microfuge for 3 minutes. […]
To examine effects of TGF-β on myogenic properties of human muscle stem cells, exogenous molecule was added to young and old human satellite cells in culture. Myogenic capacity was determined based on numbers of fusion-competent, proliferating myoblasts, e.g., cells that rapidly (in approximately 2 hours) incorporate BrdU, co-express desmin and MyoD and fuse into eMyHC+myotubes when transferred to mitogen-low medium. […]

Test [1] has as its system MAPK pathway / Notch in human satellite cells. Kind of test: Western blot of Delta, active Notch and pERK in human satellite cells cultured with MAPK agonists and antagonists. In kind it is cell-based. The settings on record: human satellite cells in culture. The method, then: Myofiber and satellite cell cultures were isolated from basal state human biopsies, in a manner similar to those previously described for the mouse model (Conboy et al. (2003) Science 302:1575-1577). Whole muscle biopsies were prepared for myofiber fragments by enzymatic digestion −37° C. in DMEM (Invitrogen, Carlsbad, Calif.)/Pen-Strep (Invitrogen)/0.2% Collagenase Type IIA (Sigma), trituration, and multiple sedimentation and washing procedures. Isolated satellite cells and myofibers were resuspended in growth medium (Ham's F10 nutrient mixture—Mediatech, Inc., Herndon, Va.), 10% BGS, 5 ng/ml hbFGF (Invitrogen) and 1% Pen-Strep, and cultured on Matrigel (diluted 1:250). Blood was collected from subjects for sera isolation. Briefly, blood cells were coagulated followed by centrifugation at 8,000 rpm, 4° C. in a microfuge for 3 minutes.
For Western Blot analysis, whole skeletal muscle lysates were prepared in lysis buffer (50 mM Tris, 150 mM NaCl, 1% NP40, 0.25% sodium deoxycholate and 1 mM EDTA, pH 7.4) with addition of protease inhibitor cocktail (Sigma) and 1 mM PMSF. Phosphatase activity was inhibited by 1 mM sodium fluoride and 1 mM sodium orthovanadate. For most assays, 30 μg protein extracts were run on pre-cast SDS PAGE gels (BioRad). Primary antibodies were diluted in 5% non-fat milk/1× PBST, and nitrocellulose membranes were incubated with antibody mixtures overnight at 4° C. HRP-conjugated secondary antibodies (Santa Cruz Biotech) were diluted 1:1000 in 1× PBST/1% BSA and incubated for 1 hour at room temperature. Blots were developed using Western Lightning ECL reagent (Perkin Elmer) and analyzed with Bio-Rad Gel Doc/Chemi Doc Imaging System and Quantity One software. Results were quantified by digitizing the data and normalizing pixel density of examined protein by actin-specific pixel density.
The levels of Delta, amounts of active Notch and the efficiency of myogenic responses in human satellite cells cultured in the presence of agonists and antagonists of MAPK pathway were investigated. […]
In general terms: In western blotting, separated proteins are transferred to a membrane and probed.

Test [2] concerns muscle stem cells (satellite cells). The test is described as follows: Myogenic responses of mouse muscle stem cells in young or old mouse sera (TGF-β1 depletion and add-back, Wnt3A, FRP3). The test is classed as cell-based. How it is done:
To examine the relative role of circulating TGF-β1 in the age-specific inhibition of muscle stem cell responses, TGF-β1 was depleted from young and old mouse sera and then added back in a range of concentrations. Muscle stem cells derived from young and old mice were cultured in the presence of young and old mouse sera that differed only in the levels of TGF-β1, and the regenerative responses of these cells were assayed. Serum was depleted of TGF-β1 by incubation with a TGF-β1 specific antibody (or an isotype-matched control IgG) followed by binding and removal of the TGF-β1-antibody complexes (or IgG control antibody complexes, e.g. control sera) using protein G-coated agarose beads. The success in the TGF-β1 depletion was confirmed by ELISA. The myogenic regenerative potential of muscle stem cells was quantified based on their ability to rapidly (overnight) generate de-novo myogenic lineages: BrdU-incorporating desmin+myoblasts (myogenic proliferation) that differentiate into post-mitotic eMyHC+myotubes (myogenic differentiation). The time course of such de-novo in vitro myogenesis that recapitulates the in vivo muscle repair is shown in FIG. 14A-D. Myogenic proliferation (at 24-28 hours of culture) and myogenic differentiation (at 48-72 hours of culture) were consistently higher for young satellite cells as compared to old satellite cells and in young sera as compared to old sera at all time points (FIGS. 17 and 18). The non-myogenic, desmin negative proliferating fibroblasts (known to contaminate satellite cell preparations at ˜2-5% and to expand in the presence of old sera or high levels of TGF-β (Carlson et al., 2008) were less numerous in cultures with experimentally calibrated levels of TGF-β1 (FIG. 15) and also declined in cultures with exogenous Wnt 3A (FIG. 16A).
Recombinant TGF-β1 was added at a range of concentrations to these mouse sera (depleted from endogenous TGF-β1) and assayed the regenerative responses of muscle stem cells, as above. […] The levels of TGF-β1 that are permissive for myogenic responses correspond to the range of bioactive TGF-β1 found in young blood sera, while the inhibitory range corresponds to the levels typical of aged circulation. The threshold mode of TGF-β1-imposed inhibition of muscle repair established here, also correlate well with the results of heterochronic parabiosis.
A similar rescue of satellite cell responses in the presence of old serum was reported to be achieved by inhibition of Wnt via FRPs, and exogenous Wnt3A was reported to inhibit satellite cell myogenic responses, in favor of fibroblast trans-differentiation (Brack et al., (2007), Science, 317:807-810). Thus, an investigation was conducted to determine whether Wnt was potentially synergistic with the TGF-β1-dependent attenuation of myogenic potential. Myogenic potential of young and old satellite cells was examined in the following conditions: young serum with exogenous Wnt3A (by itself or simultaneously with exogenous TGF β1) or old serum with exogenous FRP3 (by itself or simultaneously with TGF-β neutralization). […] In fact, consistent with the previously reported pro-myogenic activity of Wnt, Wnt3A […].
Myofiber explant cultures and primary myogenic progenitor cells were generated from C57/Bl6 mice using methods known in the art (see e.g., Conboy et al., (2003), Science, 302:1575-1577). Myoblasts were maintained in growth media (Ham's F-10, 20% FBS, 5 ng/ml basic-FGF, and penicillin-streptomycin). Opti-MEM was used to culture myofibers explants in 10% young, 10% old, or 10% young and old mouse serum (5% each). Differentiation media consisted of DMEM and 5% horse serum. Basic-FGF was obtained from Sigma (St. Louis, Mo.) and R&D systems (Minneapolis, Minn.), Opti-MEM was obtained from Invitrogen (Carlsbad, Calif.), and all other cell culture reagents were obtained from Cellgro (Herndon, Va.).

A further test deals with TGF-β1. Kind of test: ELISA of circulating TGF-β1 in treated old mice. The test is classed as in vivo, mouse. The source says:
Control injections/pumps of goat IgG yielded data typical of young and old untreated mice for muscle repair and TGF-β1 ELISA.

Another test concerns old muscle repair. Kind of test: Muscle regeneration after CTX injury in mice given systemic TGF-β attenuators. In kind it is in vivo, mouse. How it is done: Five days before the end of treatment, muscle was injured. At the end of treatment, animals were sacrificed and muscle was collected. BrdU was injected (intraperitoneal) at 3 days post-injury to label proliferating, fusion-competent myoblasts.
Experiments were conducted to rejuvenate muscle repair in old tissue by attenuating TGF-β pathway activity through systemic pharmacological intervention, in vivo. Three independent attenuators were used: (1) a small molecule inhibitor of TGF-β RI Kinase, (2) TGF-β neutralizing antibody and (3) a decoy composed of the extracellular portion of TGF-β receptor II. These molecules were administered systemically to mice, twice daily. After 10 days of dosage, muscle was injured by CTX, and 5 days after injury and BrdU administration the muscle was harvested, frozen, and examined histologically.
To control for the potential differences in the half-life of anti-TGF-β neutralizing antibody as compared to TGF-β RI Kinase inhibitor, constitutive systemic delivery of these molecules was provided by osmotic subcutaneous pumps for four weeks.

The next test has as its system TGF-β/pSmad signaling. The test is described as follows: Western blot of pSmad3 and TGF-β1 in muscle of treated old mice. In kind it is in vivo, mouse. The settings on record: osmotic pumps.

In the case of FGF-2: MAPK agonist FGF-2, the “myogenic regenerative capacity (proliferating fusion-competent myoblasts, desmin/BrdU)” value in the test with human satellite cells was “significantly enhanced”. Also, in test [1], the Delta levels entry is given as “induced”, the “active Notch levels” value is listed as “induced” and the “levels of pERK” value was “induced”.
With “TGF-β1: recombinant TGF-β1 added to cultures or depleted sera [reference compound]”, the “myogenic regenerative capacity (proliferating fusion-competent myoblasts, desmin/BrdU)” value in the test with human satellite cells was “dramatically reduced”. The “concentration of TGF-β1 that alone suffices for inhibition of myogenic satellite cell responses” value in test [2] (recombinant TGF-β1 added to mouse sera depleted of endogenous TGF-β1, 1-5 ng/ml and higher) was 1 to 5 ng/mL.

B1: soluble TGF-β receptor II: a decoy composed of the extracellular portion of TGF-β receptor II (protein, UniProt P37173 23-166, looked up)
extracellular domain: TIPPHVQKSVNNDMIVTDNNGAVKFPQLCKFCDVRFSTCDNQKSCMSNCSITSICEKPQEVCVAVWRKNDENITLETVCHDPKLPYHDFILEDAASPKCIMKEKKKPGETFFMCSCSSDECNDNIIFSEEYNTSNPDLLLVIFQ
modifications: extracellular domain
Regarding B1, the “circulating levels of TGF-β1” value in the test on TGF-β1 is “failed to reduce”. For the same molecule, the “muscle regeneration / myogenic regenerative capacity” value in the test with old muscle repair (old mice, systemic administration twice daily, CTX injury after 10 days, 5 days post-injury) is “did not result in the rejuvenation”. Besides, in the test with TGF-β/pSmad signaling, the “levels of TGF-β1 in old muscle” value is “not” and the “levels of pSmad3 in old muscle” value was “not”.

B2: Wnt3A: exogenous Wnt3A (protein, UniProt P56704 19-352, looked up)
Protein Wnt-3a: SYPIWWSLAVGPQYSSLGSQPILCASIPGLVPKQLRFCRNYVEIMPSVAEGIKIGIQECQHQFRGRRWNCTTVHDSLAIFGPVLDKATRESAFVHAIASAGVAFAVTRSCAEGTAAICGCSSRHQGSPGKGWKWGGCSEDIEFGGMVSREFADARENRPDARSAMNRHNNEAGRQAIASHMHLKCKCHGLSGSCEVKTCWWSQPDFRAIGDFLKDKYDSASEMVVEKHRESRGWVETLRPRYTYFKVPTERDLVYYEASPNFCEPNPETGSFGTRDRTCNVSSHGIDGCDLLCCGRGHNARAERRREKCRCVFHWCCYVSCQECTRVYDVHTCK
For B2, the “generation of fusion-competent proliferating myoblasts by satellite cells” value in test [2] (Wnt3A simultaneously with exogenous TGF-β1, young serum) was “enhanced”. In test [2] (exogenous Wnt3A), the myotube formation result is reported as “enhanced” and the “presence of non-myogenic fibroblastic cells (desmin-BrdU+)” value was “actually reduced”. Further, in test [2] (young serum with exogenous Wnt3A), the “myogenic potential in young serum” value is “did not reduce”.

B3: FRP: exogenous FRP3, inhibitor of Wnt (protein, UniProt Q92765 33-325, looked up)
Secreted frizzled-related …: AACEPVRIPLCKSLPWNMTKMPNHLHHSTQANAILAIEQFEGLLGTHCSPDLLFFLCAMYAPICTIDFQHEPIKPCKSVCERARQGCEPILIKYRHSWPENLACEELPVYDRGVCISPEAIVTADGADFPMDSSNGNCRGASSERCKCKPIRATQKTYFRNNYNYVIRAKVKEIKTKCHDVTAVVEVKEILKSSLVNIPRDTVNLYTSSGCLCPPLNVNEEYIIMGYEDEERSRLLLVEGSIAEKWKDRLGKKVKRWDMKLRHLGLSKSDSSNSDSTQSQKSGRNSNPRQARN
For the molecule B3, the “regeneration of old muscle in vivo” value with old muscle repair (experimental attenuation of Wnt by FRP) is “did not improve”. The “myogenic responses in old serum” value in test [2] (old serum with exogenous FRP3) is given as “did not rescue”.
